Patent publication US6492124B1, “Trance activated signal transduction pathways in osteoclasts” (The Rockefeller University, priority 1999, dated 2002)

Test system: c-Src
Assay: c-Src immunoprecipitate in vitro kinase assay with SAM68 after TRANCE stimulation of cells
Type: cell-based, mouse
Procedure: FIG. 3. c-Src is required for TRANCE-induced PKB activation and osteoclast survival. (A) c-Src was immunoprecipitated from osteoclasts, dendritic cells and macrophages stimulated with TRANCE (1 μg/ml) for the indicated times using an anti-c-Src-specific monoclonal antibody (327). PTK activity of the c-Src immunprecipitates were measured in vitro using SAM68, a PTK specific substrate. The degree of SAM68 phosphorylation was determined by Western blot analysis using an anti-phospho-tyrosine antibody (4G10) and densitometry. Note that c-Src kinase activity was not detectable in TRANCE-treated macrophages most likely due to low levels of c-Src in these cells (Lacey, et al., supra, 1998). (B) Osteoclasts derived from wild type and c-Src deficient mice were stimulated with TRANCE (5 μg/ml) for 10 min and the levels of phosphorylated PKB (PKB^P), total PKB, and total IκBα were determined as in FIG. 1. […] TRAP solution assays were performed and percent survival calculated. […] Osteoclasts were detected by TRAP solution assays. […]
FIG. 5. […] PTK activity of the c-Src immunoprecipitates was measured by in vitro kinase assays using SAM68 as a PTK substrate. The degree of SAM68 phosphorylation (SAM68^P) was determined by Western blot analysis using a phospho-tyrosine specific antibody (4G10) followed by densitometry. […] The degree of SAM68 phosphorylation (SAM68^P) was determined as in (A). […]

## TNF-related activation-induced cytokine [TRANCE]
TRANCE-treated macrophages
  c-Src kinase activity: no detectable
Osteoclasts and dendritic cells, TRANCE 1 μg/ml
  induction of c-Src kinase activity: approximately 2 fold
